According to article PMC3463529:

Columns and labels:
Assay in all cases: SEC; Superose12 10/300 GL, lysis buffer for native purification, 0.4 ml/min; concentrated Ni2+-NTA eluate of GFP-perlucin (~20 mg/ml); peak fractions analysed by SDS-PAGE; sizes estimated against gel filtration standards (12 kDa - 2 MDa)
[1] = biological target: full length His-tagged GFP-perlucin (410 amino acids, 46.8 kDa) (Aequorea victoria | Haliotis laevigata) (UniProt P82596)
[2] = biological target: truncated His-tagged GFP-perlucin lacking 141 C-terminal amino acids (Aequorea victoria | Haliotis laevigata) (UniProt P82596)
[3] = biological target: His-tagged GFP-perlucin derivative lacking 15 C-terminal amino acids (395 amino acids, 45 kDa) (Aequorea victoria | Haliotis laevigata) (UniProt P82596)
[4] = biological target: truncated His-tagged GFP-perlucin lacking 145 C-terminal amino acids (Aequorea victoria | Haliotis laevigata) (UniProt P82596)

| Substance | polypeptide chains in the complex (peak A, 395aa/410aa and truncated variants together) (polypeptide chains) [1] | stoichiometry N (polypeptide chains) [2] | polypeptide chains in the complex (peak A, 395aa/410aa and truncated variants together) (polypeptide chains) [3] | stoichiometry N (polypeptide chains) [4] |
| --- | --- | --- | --- | --- |
| truncated His-tagged GFP-perlucin lacking 141 C-terminal amino acids (from UniProt P82596 1-14) | 50 | 3 to 5 | 50 | – |
| truncated His-tagged GFP-perlucin lacking 145 C-terminal amino acids (from UniProt P82596 1-10) | 50 | – | 50 | 3 to 5 |
